Measured values as given in patent publication US7888090B2, “Mutants of O6-alkylguanine-DNA alkyltransferase” (Ecole Polytechnique Federale de Lausanne, priority 2004, dated 2011).

test: BG-Cy3 activity assay (reaction rate of AGT mutants); assay type: biochemical; settings: divided by value for wild type hAGT; periplasmic extracts (x.)
Method: Reactivity against DNA-based substrates measured with a BG-Cy3 assay: BG-Cy3 is prepared by reacting the previously described O^6-(4-aminomethyl-benzyl)guanine (Keppler et al., NatureBiotechnol. 21:86-89, 2003) with the commercially available N-hydroxysuccinimide ester of Cy3, (Cy3-NHS, Amersham). The coupling reaction is performed at ambient temperature in N,N-dimethylformamide in the presence of 1 eq. of triethylamine. The BG-Cy3 conjugate is purified by reversed-phase HPLC on a C18-column by using linear gradients from 0.1% trifluoroacetic acid to acetonitrile. After solvent evaporation BG-Cy3 is dissolved in dimethyl sulfoxide and stored at −20° C. For measuring the reactivity with DNA-based substrates, a reaction mixture containing different concentrations (0 to 5 µM) of oligonucleotide SEQ ID NO:2 (modified in position 14), GST-AGT fusion protein at 0.2 µM and BG-Cy3 at […] in reaction buffer (50 mM HEPES, pH 7.2, 1 mM DTT, 200 mg/ml BSA) is incubated in microtiterplates. Fluorescence of the Cy3 derivative (excitation 519 nm, emission at 572 nm) is measured on a Spectramax Gemini plate reader (Molecular Devices).
The amplified products are cloned in fusion to the g3 gene of filamentous phage in the vector pAK100 via SfiI restriction sites. The resulting gene libraries are used for phage display as described under Example 4. The mutants of the libraries are selected with 5 to 50 nM of BG-Bt for 10 min. Selected mutants are subcloned into pGEX using the primers SEQ ID NO:3 and SEQ ID NO:13. The reaction rate of mutant AGTs is determined as described in Example 6, Reactivity against DNA-based substrates (BG-Cy3 assay).
For the activity assay purified GST fusion proteins were used for mutants marked with “p.” (prepared as described under Example 1); periplasmic extracts were used for mutants marked with “x.” (prepared as described under Example 2).

| Molecule | Relative reaction rate |
| --- | --- |
| Lys8Thr, Thr127Ala, Ala154Thr, His174Arg: AGT mutant having all mutations of AGTM and additionally those listed (protein, UniProt P16455 1-207, looked up, variant K8T C62A Q115S Q116H K125A R128A G131K G132T M134L R135S C150N S151I S152N A154T N157G S159E H174R del183-207) Methylated-DNA--protein-cystei …: MDKDCEMTRTTLDSPLGKLELSGCEQGLHEIKLLGKGTSAADAVEVPAPAAVLGGPEPLMQATAWLNAYFHQPEAIEEFPVPALHHPVFQQESFTRQVLWKLLKVVKFGEVISYSHLAALAGNPAAAAAVKTALSGNPVPILIPCHRVVNINGTVGGYEGGLAVKEWLLAHEGRRLGKPGLG | 15.66 |
| Lys104Glu, Thr127Ala, Ala154Thr: AGT mutant having all mutations of AGTM and additionally those listed (protein, UniProt P16455 1-207, looked up, variant C62A K104E Q115S Q116H K125A R128A G131K G132T M134L R135S C150N S151I S152N A154T N157G S159E del183-207) Methylated-DNA--protein-cystei …: MDKDCEMKRTTLDSPLGKLELSGCEQGLHEIKLLGKGTSAADAVEVPAPAAVLGGPEPLMQATAWLNAYFHQPEAIEEFPVPALHHPVFQQESFTRQVLWKLLEVVKFGEVISYSHLAALAGNPAAAAAVKTALSGNPVPILIPCHRVVNINGTVGGYEGGLAVKEWLLAHEGHRLGKPGLG | 12.34 |
| Lys32lle, Leu33Phe, Gly182Val: AGT mutant having all mutations of AGTM and additionally those listed (protein, UniProt P16455 1-207, looked up, variant K32I L33F C62A Q115S Q116H K125A A127T R128A G131K G132T M134L R135S C150N S151I S152N N157G S159E G182V del183-207) Methylated-DNA--protein-cystei …: MDKDCEMKRTTLDSPLGKLELSGCEQGLHEIIFLGKGTSAADAVEVPAPAAVLGGPEPLMQATAWLNAYFHQPEAIEEFPVPALHHPVFQQESFTRQVLWKLLKVVKFGEVISYSHLAALAGNPAATAAVKTALSGNPVPILIPCHRVVNINGAVGGYEGGLAVKEWLLAHEGHRLGKPGLV | 9.48 |

same assay, conditions: divided by value for wild type hAGT; purified GST fusion proteins (p.)

| Molecule | Relative reaction rate |
| --- | --- |
| Lys32lle, Leu33Phe, Asn150Gly, lle151Gly, Asn152Asp, Ala154Asp: AGT mutant having all mutations of AGTM and additionally those listed (protein, UniProt P16455 1-207, looked up, variant K32I L33F C62A Q115S Q116H K125A A127T R128A G131K G132T M134L R135S C150G S151G S152D A154D N157G S159E del183-207) Methylated-DNA--protein-cystei …: MDKDCEMKRTTLDSPLGKLELSGCEQGLHEIIFLGKGTSAADAVEVPAPAAVLGGPEPLMQATAWLNAYFHQPEAIEEFPVPALHHPVFQQESFTRQVLWKLLKVVKFGEVISYSHLAALAGNPAATAAVKTALSGNPVPILIPCHRVVGGDGDVGGYEGGLAVKEWLLAHEGHRLGKPGLG | 45.45 |
| Asn150Val, lle151Ser, Asn152Arg, Gly153Asp, Ala154Asp: AGT mutant having all mutations of AGTM and additionally those listed (protein, UniProt P16455 1-207, looked up, variant C62A Q115S Q116H K125A A127T R128A G131K G132T M134L R135S C150V S152R G153D A154D N157G S159E del183-207) Methylated-DNA--protein-cystei …: MDKDCEMKRTTLDSPLGKLELSGCEQGLHEIKLLGKGTSAADAVEVPAPAAVLGGPEPLMQATAWLNAYFHQPEAIEEFPVPALHHPVFQQESFTRQVLWKLLKVVKFGEVISYSHLAALAGNPAATAAVKTALSGNPVPILIPCHRVVVSRDDVGGYEGGLAVKEWLLAHEGHRLGKPGLG | 21.26 |
| Ala154Thr: AGT mutant having all mutations of AGTM and additionally those listed (protein, UniProt P16455 1-207, looked up, variant C62A Q115S Q116H K125A A127T R128A G131K G132T M134L R135S C150N S151I S152N A154T N157G S159E del183-207) Methylated-DNA--protein-cystei …: MDKDCEMKRTTLDSPLGKLELSGCEQGLHEIKLLGKGTSAADAVEVPAPAAVLGGPEPLMQATAWLNAYFHQPEAIEEFPVPALHHPVFQQESFTRQVLWKLLKVVKFGEVISYSHLAALAGNPAATAAVKTALSGNPVPILIPCHRVVNINGTVGGYEGGLAVKEWLLAHEGHRLGKPGLG | 14.90 |
| Asn150Glu, lle151Gly, Asn152Glu, Ala154Arg: AGT mutant having all mutations of AGTM and additionally those listed (protein, UniProt P16455 1-207, looked up, variant C62A Q115S Q116H K125A A127T R128A G131K G132T M134L R135S C150E S151G S152E A154R N157G S159E del183-207) Methylated-DNA--protein-cystei …: MDKDCEMKRTTLDSPLGKLELSGCEQGLHEIKLLGKGTSAADAVEVPAPAAVLGGPEPLMQATAWLNAYFHQPEAIEEFPVPALHHPVFQQESFTRQVLWKLLKVVKFGEVISYSHLAALAGNPAATAAVKTALSGNPVPILIPCHRVVEGEGRVGGYEGGLAVKEWLLAHEGHRLGKPGLG | 18.42 |
| Asn150Glu, lle151Gly, Asn152Trp, Gly153Asn, Ala154Glu: AGT mutant having all mutations of AGTM and additionally those listed (protein, UniProt P16455 1-207, looked up, variant C62A Q115S Q116H K125A A127T R128A G131K G132T M134L R135S C150E S151G S152W G153N A154E N157G S159E del183-207) Methylated-DNA--protein-cystei …: MDKDCEMKRTTLDSPLGKLELSGCEQGLHEIKLLGKGTSAADAVEVPAPAAVLGGPEPLMQATAWLNAYFHQPEAIEEFPVPALHHPVFQQESFTRQVLWKLLKVVKFGEVISYSHLAALAGNPAATAAVKTALSGNPVPILIPCHRVVEGWNEVGGYEGGLAVKEWLLAHEGHRLGKPGLG | 11.97 |
| Asn150Glu, lle151Gly, Asn152Arg, Gly153Glu, Ala154Arg: AGT mutant having all mutations of AGTM and additionally those listed (protein, UniProt P16455 1-207, looked up, variant C62A Q115S Q116H K125A A127T R128A G131K G132T M134L R135S C150E S151G S152R G153E A154R N157G S159E del183-207) Methylated-DNA--protein-cystei …: MDKDCEMKRTTLDSPLGKLELSGCEQGLHEIKLLGKGTSAADAVEVPAPAAVLGGPEPLMQATAWLNAYFHQPEAIEEFPVPALHHPVFQQESFTRQVLWKLLKVVKFGEVISYSHLAALAGNPAATAAVKTALSGNPVPILIPCHRVVEGRERVGGYEGGLAVKEWLLAHEGHRLGKPGLG | 11.20 |
| Asn150Val, lle151Asn, Asn152Asp, Gly153Leu, Ala154Asp: AGT mutant having all mutations of AGTM and additionally those listed (protein, UniProt P16455 1-207, looked up, variant C62A Q115S Q116H K125A A127T R128A G131K G132T M134L R135S C150V S151N S152D G153L A154D N157G S159E del183-207) Methylated-DNA--protein-cystei …: MDKDCEMKRTTLDSPLGKLELSGCEQGLHEIKLLGKGTSAADAVEVPAPAAVLGGPEPLMQATAWLNAYFHQPEAIEEFPVPALHHPVFQQESFTRQVLWKLLKVVKFGEVISYSHLAALAGNPAATAAVKTALSGNPVPILIPCHRVVVNDLDVGGYEGGLAVKEWLLAHEGHRLGKPGLG | 15.67 |
| Lys32lle, Leu33Phe, Ala154Thr: AGT mutant having all mutations of AGTM and additionally those listed (protein, UniProt P16455 1-207, looked up, variant C62A Q115S Q116H K125A A127T R128A G131K G132T M134L R135S C150N S151I S152N N157G S159E del183-207 K32I L33F A154T) Methylated-DNA--protein-cystei …: MDKDCEMKRTTLDSPLGKLELSGCEQGLHEIIFLGKGTSAADAVEVPAPAAVLGGPEPLMQATAWLNAYFHQPEAIEEFPVPALHHPVFQQESFTRQVLWKLLKVVKFGEVISYSHLAALAGNPAATAAVKTALSGNPVPILIPCHRVVNINGTVGGYEGGLAVKEWLLAHEGHRLGKPGLG | 33.89 |
| Asn150Glu, lle151Ser, Asn152His, Ala154Lys: AGT mutant having all mutations of AGTM and additionally those listed (protein, UniProt P16455 1-207, looked up, variant C62A Q115S Q116H K125A A127T R128A G131K G132T M134L R135S C150E S152H A154K N157G S159E del183-207) Methylated-DNA--protein-cystei …: MDKDCEMKRTTLDSPLGKLELSGCEQGLHEIKLLGKGTSAADAVEVPAPAAVLGGPEPLMQATAWLNAYFHQPEAIEEFPVPALHHPVFQQESFTRQVLWKLLKVVKFGEVISYSHLAALAGNPAATAAVKTALSGNPVPILIPCHRVVESHGKVGGYEGGLAVKEWLLAHEGHRLGKPGLG | 15.43 |

test: Activity assay with biotinylated O^6-benzylguanine (BG-Bt), Western blotting; assay type: biochemical; settings: statement in words
Method: Activity towards O^6-benzylguanine substrates is measured as described by Juillerat et al., Chem Biol 10:313-317, 2003.
Activity assay: Purified mutated GST-AGT is incubated in vitro with a biotinylated O^6-benzylguanine (BG-Bt, substance 3a of Juillerat et al., Chem Biol 10:313-317, 2003). In a total reaction volume of 80 […]I, 0.2 µM GST-AGT are incubated with 1 µM substrate in 50 mM HEPES pH 7.2 and 1 mM DTT at room temperature. At several points of time an aliquot is quenched with 1 mM O^6-benzylguanine (Sigma) in SDS-Laemmli buffer and subjected to Western blotting analysis (neutravidin-peroxidase conjugate (PIERCE), Renaissance reagent plus (NEN)). The intensity of the corresponding bands is quantified by a Kodak Image Station 440.

| Molecule | activity towards O^6-benzylguanine substrates |
| --- | --- |
| truncated PGEG-hAGT: PGEG-hAGT (Asn157Gly, Ser159Glu) truncated after codon 182 (protein, UniProt P16455 1-207, looked up, variant N157G S159E del183-207) Methylated-DNA--protein-cystei …: MDKDCEMKRTTLDSPLGKLELSGCEQGLHEIKLLGKGTSAADAVEVPAPAAVLGGPEPLMQCTAWLNAYFHQPEAIEEFPVPALHHPVFQQESFTRQVLWKLLKVVKFGEVISYQQLAALAGNPKAARAVGGAMRGNPVPILIPCHRVVCSSGAVGGYEGGLAVKEWLLAHEGHRLGKPGLG | retains activity |
| Cys62Ala, Lys125Ala, Ala127Thr, Arg128Ala, Asn157Gly, Ser159Glu: hAGT mutant with the listed mutations (protein, UniProt P16455 1-207, looked up, variant C62A K125A A127T R128A N157G S159E) Methylated-DNA--protein-cystei …: MDKDCEMKRTTLDSPLGKLELSGCEQGLHEIKLLGKGTSAADAVEVPAPAAVLGGPEPLMQATAWLNAYFHQPEAIEEFPVPALHHPVFQQESFTRQVLWKLLKVVKFGEVISYQQLAALAGNPAATAAVGGAMRGNPVPILIPCHRVVCSSGAVGGYEGGLAVKEWLLAHEGHRLGKPGLGGSSGLAGAWLKGAGATSGSPPAGRN | retains activity |
